Test results from patent US20100081575A1 (published 2010).

B1: 2G12 domain exchanged Fab fragment displayed on phage, expressed from the 2G12 pCAL G13 vector (SEQ ID NO: 11) (Fab, not shown: small tags and cut ends; large carriers)
heavy 1: EVQLVESGGGLVKAGGSLILSCGVSNFRISAHTMNWVRRVPGGGLEWVASISTSSTYRDYADAVKGRFTVSRDDLEDFVYLQMHKMRVEDTAIYYCARKGSDRLSDNDPFDAWGPGTVVTVSPASTKGPSVFPLAPSSKSTSGGTAALGCLVKDYFPEPVTVSWNSGALTSGVHTFPAVLQSSGLYSLSSVVTVPSSSLGTQTYICNVNHKPSNTKVDKKVEPKSCLRYPYDVPDYA
heavy 2: EVQLVESGGGLVKAGGSLILSCGVSNFRISAHTMNWVRRVPGGGLEWVASISTSSTYRDYADAVKGRFTVSRDDLEDFVYLQMHKMRVEDTAIYYCARKGSDRLSDNDPFDAWGPGTVVTVSPASTKGPSVFPLAPSSKSTSGGTAALGCLVKDYFPEPVTVSWNSGALTSGVHTFPAVLQSSGLYSLSSVVTVPSSSLGTQTYICNVNHKPSNTKVDKKVEPKSCLRYPYDVPDYA
light: AGVVMTQSPSTLSASVGDTITITCRASQSIETWLAWYQQKPGKAPKLLIYKASTLKTGVPSRFSGSGSGTEFTLTISGLQFDDFATYHCQHYAGYSATFGQGTRVEIKRTVAAPSVFIFPPSDEQLKSGTASVVCLLNNFYPREAKVQWKVDNALQSGNSQESVTEQDSKDSTYSLSSTLTLSKADYEKHKVYACEVTHQGLSSPVTKSFNRGEC
notes: also called 2G12 Fab; 2G12 alone
B2: 2G12 domain exchanged Fab fragment displayed on phage, expressed from the 2G12 pCAL A1 vector (SEQ ID NO: 217) (Fab)
heavy 1: EVQLVESGGGLVKAGGSLILSCGVSNFRISAHTMNWVRRVPGGGLEWVASISTSSTYRDYADAVKGRFTVSRDDLEDFVYLQMHKMRVEDTAIYYCARKGSDRLSDNDPFDAWGPGTVVTVSPASTKGPSVFPLAPSSKSTSGGTAALGCLVKDYFPEPVTVSWNSGALTSGVHTFPAVLQSSGLYSLSSVVTVPSSSLGTQTYICNVNHKPSNTKVDKKVEPKSCLR
heavy 2: EVQLVESGGGLVKAGGSLILSCGVSNFRISAHTMNWVRRVPGGGLEWVASISTSSTYRDYADAVKGRFTVSRDDLEDFVYLQMHKMRVEDTAIYYCARKGSDRLSDNDPFDAWGPGTVVTVSPASTKGPSVFPLAPSSKSTSGGTAALGCLVKDYFPEPVTVSWNSGALTSGVHTFPAVLQSSGLYSLSSVVTVPSSSLGTQTYICNVNHKPSNTKVDKKVEPKSCLR
light: AGVVMTQSPSTLSASVGDTITITCRASQSIETWLAWYQQKPGKAPKLLIYKASTLKTGVPSRFSGSGSGTEFTLTISGLQFDDFATYHCQHYAGYSATFGQGTRVEIKRTVAAPSVFIFPPSDEQLKSGTASVVCLLNNFYPREAKVQWKVDNALQSGNSQESVTEQDSKDSTYSLSSTLTLSKADYEKHKVYACEVTHQGLSSPVTKSFNRGEC

Target: T1, ovalbumin (UniProt P01012 2-386)
T1 sequence (looked up): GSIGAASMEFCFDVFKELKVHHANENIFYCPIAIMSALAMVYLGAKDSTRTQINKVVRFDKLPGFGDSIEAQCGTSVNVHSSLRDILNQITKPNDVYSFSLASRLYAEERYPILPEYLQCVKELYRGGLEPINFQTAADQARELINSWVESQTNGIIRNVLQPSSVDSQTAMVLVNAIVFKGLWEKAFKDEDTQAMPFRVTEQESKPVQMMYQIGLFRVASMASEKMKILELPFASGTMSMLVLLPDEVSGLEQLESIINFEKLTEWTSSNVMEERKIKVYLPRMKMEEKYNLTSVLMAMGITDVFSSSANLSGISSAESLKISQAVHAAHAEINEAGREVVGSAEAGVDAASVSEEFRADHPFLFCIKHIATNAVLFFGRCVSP
Assay: phage ELISA, anti-HA or anti-M13 detection

Row | Binder | binding result
1 | B1 | no binding
2 | B2 | no binding
